# Measured values taken from the supplement of paper PMC7877785.
# ± gives the uncertainty stated by the source.
# Assay: self-splicing fitness, log relative to wild type (ln ratio); higher = more splicing; Tetrahymena group I intron in knt gene, E. coli kanamycin selection, DiMSum; sequences stand for … in CUCUCU…GGAGGGAAAAGUUAUCAGGCAUGCACCUGGUAGCUAGUCUUUAAACCAAUAGAUUGCAUCGGUUUAAAAGGCAAGACCGUCAAAUUGCGGGAAAGGGGUCAACAGCCGUUCAGUACCAAGUCUCAGGGGAAACUUUGAGAUGGCCUUGCAAAGGGUAUGGUAAUAAGCUGACGGACAUGGUCCUAACCACGCAGCCAAGUCCUAAGUCAACAGAUCUUCUGUUGAUAUGGAUGCAGUUCACAGACUAAAUGUCGGUCGGGGAAGAUGUAUUCUUCUCAUAAGAUAUAGUCGGACCUCUCCUUAAUGGGAGCUAGCGGAUGAAGUGAUGCAACACUGGAGCCGCUGGGAACUAAUUUGUAUGCGAAAGUAUAUUGAUUAGUUUUGGAGUACUCGUGGUCG
# Outline: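 Pooled colonies went to amplicon sequencing on an Illumina HiSeq 2500 after six replicate transformations. The plates were LB agar with 100 μg/mL carbenicillin, 50 μM IPTG and 0.2% rhamnose, with or without 25 μg/mL kanamycin, incubated overnight at 37°C or 30°C. The E. coli BL21(DE3) library had all eight P1ex-region intron nucleotides randomised, the intron placed in the knt kanamycin-resistance gene on pET-22b(+). DiMSum fitness is the error-weighted combination of replicate fold changes, kanamycin against none, normalised to wild type.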
Sequence,self-splicing fitness (ln) (30 °C),self-splicing fitness (ln) (37 °C)
UACAAGCAAUAUUACGCCAA,-1.74 ± 0.18,-1.07 ± 0.15
UACAAGCAAUAUUACGCCUC,-3.38 ± 0.48,-2.1 ± 0.4
UACAAGCAAUAUUACGCGAA,-2.37 ± 0.099,-0.769 ± 0.095
UACAAGCAAUAUUACGCGCA,-0.13 ± 0.081,0.163 ± 0.11
UACAAGCAAUAUUACGCGUG,-2.09 ± 0.11,-1.37 ± 0.098
UACAAGCAAUAUUACGGAAC,-3.75 ± 0.27,-2.28 ± 0.25
UACAAGCAAUAUUACGGACC,-2.74 ± 0.14,-0.499 ± 0.18
UACAAGCAAUAUUACGGCAG,-0.426 ± 0.078,-0.134 ± 0.11
UACAAGCAAUAUUACGGCCA,-0.557 ± 0.14,0.111 ± 0.16
UACAAGCAAUAUUACGGCGG,-0.215 ± 0.065,0.218 ± 0.084
UACAAGCAAUAUUACGGGGC,-5.04 ± 0.34,-2.46 ± 0.17
UACAAGCAAUAUUACGGUAC,-4.41 ± 0.31,-3.1 ± 0.33
UACAAGCAAUAUUACGUAAG,-3.96 ± 0.21,-3.05 ± 0.19
UACAAGCAAUAUUACGUAUA,-2.22 ± 0.13,-0.891 ± 0.12
UACAAGCAAUAUUACGUCAA,-3.18 ± 0.2,-1.67 ± 0.13
UACAAGCAAUAUUACGUGAG,-3.54 ± 0.17,-1.91 ± 0.14
UACAAGCAAUAUUACGUUAC,-4.21 ± 0.23,-2.84 ± 0.22
UACCAGCAAUAUUACGAAAG,-1.95 ± 0.15,-1.28 ± 0.15
UACCAGCAAUAUUACGACAU,-1.381 ± 0.012,-0.566 ± 0.032

Sequence,self-splicing fitness (ln) (30 °C),self-splicing fitness (ln) (37 °C)
UACCAGCAAUAUUACGACGC,-2.41 ± 0.12,-1.73 ± 0.15
UACCAGCAAUAUUACGACGG,-0.833 ± 0.06,-0.237 ± 0.094
UACCAGCAAUAUUACGAGAC,-2.38 ± 0.18,-1.54 ± 0.2
UACCAGCAAUAUUACGAGCA,-0.673 ± 0.066,0.225 ± 0.09
UACCAGCAAUAUUACGAUAG,-1.1 ± 0.067,0.0475 ± 0.097
UACCAGCAAUAUUACGAUCU,-1.77 ± 0.13,-1.08 ± 0.16
UACCAGCAAUAUUACGCAAA,-1.54 ± 0.081,0.0436 ± 0.096
UACCAGCAAUAUUACGCCUU,-0.707 ± 0.066,-0.62 ± 0.074
UACCAGCAAUAUUACGGCUG,-3.63 ± 0.14,-2 ± 0.15
UACCAGCAAUAUUACGGGGU,-4.41 ± 0.16,-2.68 ± 0.15
UACCAGCAAUAUUACGUAAA,-0.982 ± 0.071,-0.408 ± 0.097
UACCAGCAAUAUUACGUACA,-0.719 ± 0.071,-0.432 ± 0.1
UACCAGCAAUAUUACGUCAG,-0.702 ± 0.095,-1.16 ± 0.11
UACCAGCAAUAUUACGUUCG,-0.545 ± 0.071,0.0802 ± 0.092
UACGAGCAAUAUUACGAAGA,-2.13 ± 0.37,–
UACGAGCAAUAUUACGAAGC,-2.71 ± 0.35,-0.927 ± 0.34
UACGAGCAAUAUUACGAAGU,-4.33 ± 0.39,-2.41 ± 0.24
UACGAGCAAUAUUACGACAA,-2.15 ± 0.47,-1.2 ± 0.31
